From patent US20200129630A1, “METHODS FOR TREATING CANCER” (BicycleRD Limited, priority 2018, published 2020)
Numbered stars: 1 amine (or outer) side, 2 acyl side, 3 side chain; on linkers, the order of the positions; unused ones are H or OH. Bridge positions count the residues as written; N and C are the ends. Square brackets hold non-standard residues; d marks the D form. Peptide text beside a SMILES is read from it. * marks the point of attachment. X1 = COc1cc2cc(c1Cl)N(C)C(=O)C[C@H](OC(=O)[C@H](C)N(C)C(=O)CCSSC(C)CCC(=O)*)[C@]1(C)O[C@H]1[C@H](C)[C@@H]1C[C@@](O)(NC(=O)O1)[C@H](OC)/C=C/C=C(\C)C2; 1Nal = N[C@@H](Cc1cccc2ccccc12)C(=O)O; TBMB = c1c(C[*:1])cc(C[*:3])cc1C[*:2]; Tle = CC(C)(C)[C@H](N)C(=O)O; βAla = NCCC(=O)O; Sar = CNCC(=O)O

Assays:
NCI-H292 = assay: In vitro cytotoxicity (CellTiter-Glo) NCI-H292; format: cell-based; conditions: NCI-H292, NSCLC
Source text: (§1) Table 1 and Table 2 Notes: in general regression and stable disease correlated with the in vitro cytotoxicity and MT1-MMP expression. Female BALB/c mice n=3/group animals dosed twice per week except EBC-1 three per week. Tumor growth inhibition (TGI) (%)=[1−(Ti−T0)/(Vi−V0)]×100; Ti is the average tumor volume of a treatment group on a given day, TO is the average tumor volume of the treatment group on the day of treatment start, Vi is the average tumor volume of vehicle control group on the same day with Ti, and V0 is the average tumor volume of vehicle group on the day of treatment start. A one-way ANOVA was performed to compare tumor volume among groups, and when a significant F-statistics (a ratio of treatment variance to the error variance) was obtained, comparisons between groups were carried out with Games-Howell test. All data were analyzed using GraphPad Prism.* p<0.05, ** p<0.01, *** p<0.001. In vitro cytotoxicity was measured by CellTiter-Glo®, MT1-MMP membrane H score from immunohistochemistry staining, NM not measured. Tumor size on Day 1 of dosing.

HT-29 = assay: In vitro cytotoxicity (CellTiter-Glo) HT-29; format: cell-based; conditions: HT-29, Colorectal
Source text: as §1

MOLP-8 = assay: In vitro cytotoxicity (CellTiter-Glo) MOLP-8; format: cell-based; conditions: MOLP-8, Myeloma
Source text: as §1

[1] = ECG, respiratory plethysmography and blood pressure (GLP safety pharmacology); format: in vivo; conditions: monkeys 0.2, 0.5, 1 and 1.5 mg/kg twice weekly
Method: As part of the Good Laboratory Practice (GLP)-compliant toxicity studies, a core battery of safety pharmacology tests were performed. […] Electrocardiogram (ECG) and respiratory plethysmography measurements were taken in monkeys dosed at 0.2, 0.5, 1 and 1.5 mg/kg (2.4, 6, 12 and 18 mg/m^2 respectively) twice weekly on Day 4, Day 22 (following 2nd and 7th dose) and in the recovery period (for animals dosed with 0, 6 and 12 mg/m^2 twice weekly). Blood pressure (BP) measurements were also evaluated in the same monkeys on Day 1 and Day 25 and in the recovery period. […] It is therefore concluded that BT1718 has no cardiac, respiratory or behavioral liability at the doses and schedule tested in the GLP toxicity studies.

[2] = Stability in whole blood in vitro, rat; format: in vitro ADME; conditions: 37° C.
Method: (§2) The stability of BT1718 was assessed in plasma and whole blood from humans, monkey, dog, mouse and rat. […] The mechanism for the difference in stability of the BT1718 peptide in whole blood between the different species is unknown.

[3] = Stability in whole blood in vitro, dog; format: in vitro ADME; conditions: 37° C.
Method: as §2

[4] = Plasma protein binding, rat; format: in vitro ADME, rats; conditions: read-out: free fraction
Method: Plasma protein binding of BT1718 was also assessed. The mean plasma protein binding of the BT1718 peptide ranged from 87% to 98%, with the free fraction of BT1718 being 13% in human, 2.6% in rats, 7.5% in mice, 3.8% in monkey and 1.5% in dog plasma, the results had no correlation to the plasma and whole blood stability data. […] Plasma protein binding of unconjugated DM1, has previously been reported, with the unbound fraction being 7% in human and monkey and 3% in rat.

[5] = Total DM1 in plasma and urine / excretion (preclinical); format: in vivo
Method: Efficacy in this model was reduced in the conjugates containing the least cleavable linkers. […] Effective treatment was also seen with same total dose, given at on schedules from daily to a single weekly dose.
The concentration of total DM1 in plasma and urine was also measured following a reduction step, to detect DM1 in BT1718, any peptidyl-DM1 metabolites of BT1718, other DM1-containing mixed disulfides and free DM1. The level of total DM1 in plasma and urine increased with increasing dose, with about 85% of the total DM1 recovered in urine within 48 hours of BT1718 administration. […] An assay for free DM1 has not been successfully developed due to the instability of the free thiol in biological matrices.

[6] = GLP-compliant 28-day repeat dose toxicity study, monkey; format: in vivo, Cynomolgus monkeys
Method: In a GLP-compliant study in Cynomolgus monkeys, the highest non-severely toxic dose (HNSTD) of BT1718 was established to be 18 mg/m^2 administered twice weekly, equivalent to a human dose of 0.48 mg/kg. In a GLP-compliant study in the rat, the MTD was not reached with the highest administered dose 6 mg/m^2 twice weekly. At this dose level, there was kidney toxicity (with no effect on clinical condition) and also testicular toxicity. After 28 days off-dose, there was evidence of partial recovery of kidney-related findings, but no recovery of testicular effects at this dose level. […] Therefore, the MTD for rat for twice weekly dosing was considered to be between 1 and 1.5 mg/kg.

[7] = Non-GLP toxicity studies, mouse; format: in vivo
Source text: These include in vitro tissue microarray in human, rat and monkey tissues and in vitro and in vivo assessment of immunogenicity. In vivo assessments include single dose toxicity in mice and rats, multiple dose range finding studies in mice, rats, dogs and monkeys (non-GLP) and GLP-compliant multiple dose studies in rats and monkeys consisting of 28-day on study phase with a 28-day recovery period.

[8] = Preclinical PK and toxicokinetics, summary across studies; set-up: species or system mice and rats; conditions: mouse and rat, in vivo, intravenous, read-out: half-life estimate
Source text: BT1718 has low molecular weight (3.5 kDA) in comparison to other conjugated toxin approaches, which enables rapid penetration of tumor tissue. […] Hypothesized advantages over ADCs therefore include reduced systemic exposure of normal tissues to circulating BT1718, the ability to manage toxicity during recovery periods, as well as the improved tumor penetrance. Other potential advantages include a fixed peptide:conjugate ratio of 1:1 (c.f. ADCs where variable conjugation results in mixed populations) and with more scalable manufacturing as a small molecule (c.f. biologics such as ADCs).

BALB/c mouse PK study = conditions: female; for Cmax: BALB/c mouse, 15 mg/m^2 (5 mg/kg) IV
[9] = PK samples in EBC-1 xenograft study; conditions: female, BALB/c, mouse, plasma, iv
[10] = BALB/c, mouse, plasma, iv, 15 mg/m2

COc1cc2cc(c1Cl)N(C)C(=O)C[C@H](OC(=O)[C@H](C)N(C)C(=O)CCSSC(C)CCC(=O)NCCC(=O)N(C)CC(=O)N(C)CC(=O)N(C)CC(=O)N(C)CC(=O)N(C)CC(=O)N(C)CC(=O)N(C)CC(=O)N(C)CC(=O)N(C)CC(=O)N(C)CC(=O)N[C@@H](C)C(=O)N[C@H]1CSCc3cc4cc(c3)CSC[C@H](NC(=O)[C@@H](C)NC(=O)[C@H](Cc3cccc5ccccc35)NC(=O)[C@H](CCC(=O)O)NC(=O)[C@H](CC(N)=O)NC(=O)[C@@H](C)NC1=O)C(=O)N[C@@H](CCC(=O)O)C(=O)N[C@@H](CC(=O)O)C(=O)N[C@@H](Cc1ccccc1)C(=O)N[C@@H](Cc1ccc(O)cc1)C(=O)N[C@@H](CC(=O)O)C(=O)N[C@@H](C(C)(C)C)C(=O)N[C@H](C(N)=O)CSC4)[C@]1(C)O[C@H]1[C@H](C)[C@@H]1C[C@@](O)(NC(=O)O1)[C@H](OC)/C=C/C=C(\C)C2 (stereo partly drawn) [BT1718] ({X1-βAla}-[Sar][Sar][Sar][Sar][Sar][Sar][Sar][Sar][Sar][Sar]AC[dA]NE[1Nal][dA]CEDFYD[Tle]C-NH2; linker 12-18-25 via TBMB (inferred))
IC50 (NCI-H292): 0.0116 µM | IC50 (HT-29): 0.013 µM | IC50 (MOLP-8): 0.141 µM | ECG, respiratory plethysmography, blood pressure findings [1]: no BT1718 related findings | half-life [2]: > 1440 min | half-life [3]: > 1440 min | fraction unbound [4]: 0.026 | route of excretion ([5]; preliminary metabolism studies): excreted mainly through the kidney in urine | total DM1 recovered in urine ([5]; within 48 hours of BT1718 administration): about 85% | HNSTD ([6]; 28 day-repeat dose GLP monkey study, twice weekly): 1.5 mg/kg | highest non-severely toxic dose (HNSTD) ([6]; Cynomolgus monkeys, GLP, twice weekly): 18 mg/m^2 | GI-related findings ([6]; GLP monkey): No GI-related findings | bladder changes ([6]; GLP monkey): No bladder changes | liver toxicity ([6]; GLP monkey up to 1.5 mg/kg, 18 mg/m^2 twice weekly): No liver toxicity | local toxicity at or around injection site ([6]; GLP monkey, 0.5 mg/kg (6 mg/m^2) twice weekly and above): black colouration of the skin | renal changes ([6]; GLP monkey, highest dose tested 1.5 mg/kg (18 mg/m^2)): No renal changes | onset dose of minimal axonal degeneration ([6]; GLP monkey, twice weekly): 1 mg/kg | HNSTD, equivalent human dose ([6]; from 18 mg/m^2 twice weekly in monkeys): 0.48 mg/kg | anti-drug antibodies (ADAs) in serum ([6]; monkey 28-day GLP study): negative | reproductive organ findings ([6]; monkey studies): No changes in reproduction organs | increase in platelets ([6]; monkeys 1 mg/kg (12 mg/m^2) twice weekly or above): 1.4-2.5 × | lymphoid findings ([6]; monkeys 1 mg/kg or 1.5 mg/kg twice weekly): Reversible thymus atrophy and decreased germinal centres in lymph nodes | white blood cell (WBC) reduction, maximum ([6]; monkeys, onset 0.5 mg/kg (6 mg/m^2) twice weekly, reversible): 0.11 × | reticulocyte reduction, maximum ([6]; monkeys, onset 1 mg/kg (12 mg/m^2) twice weekly, reversible): 0.2 × | GI findings ([7]; mice, single dose of 13.4 mg/kg (40.2 mg/m^2)): intestinal mucosal mitosis | renal findings ([7]; mouse 3.3 mg/kg, 10 mg/m^2 three times weekly): Moderate renal tubule degeneration and epithelial mitosis | half-life [8]: 15 to 30 min | AUC (BALB/c mouse PK study; BALB/c, mouse, plasma, intravenous, 5 mg/kg): ~2.5 µM·h | Cmax (BALB/c mouse PK study; BALB/c, mouse, plasma, iv, 5 mg/kg, C0/Cmax): 8 µM | AUC (BALB/c mouse PK study; [10]): 2.3 ± 0.2 µM·h | Vd (BALB/c mouse PK study; [10]): 0.23 ± 0.09 L/kg | clearance (BALB/c mouse PK study; [10]): 7.5 ± 0.6 mL/min/kg | half-life (BALB/c mouse PK study; [10]): 33.6 ± 10.8 min | Cmax (BALB/c mouse PK study; read-out: C0/Cmax): 7.2 ± 0.41 µM | Cmax ([9]; 3 mg/kg): 1.5 ± 0.9 µM | Cmax ([9]; 10 mg/kg): 7.6 ± 0.6 µM
